This experiment deals with SARS-CoV-2 spike receptor-binding domain (RBD), residues 333-529 (SARS-CoV-2, UniProt P0DTC2). The experiment is described as follows: crystal structure.

B1: ADI-62113 Fab (Fab, V domains shown)
VH: QVQLQQSGAEVKKPGASVKLSCKASGYTFSVFPIHWVRQAPGQRLEWMGWHNAGDGDTKYSQKFQGRVTIISDTSASTAYMELSSLKSEDTAVYYCARAARPYYDRRGYFFRADYFQHWGQGTLVTVSS
VL: DIQVTQSPSSLSASVGDRVTITCQASQDIKNSLNWYQQKPGKAPKLLISDASNLETGVPSRFSGNGSGTDFTFTISSLQPEDIATYYCQQYDNLITFGPGTKVEIK
Consider B1, for which the binding result is on record as “binds”.

The values above are taken from doi:10.1101/2021.12.15.472864 (bioRxiv, 2021).
